Experimental data: PMC7097325

Target: Influenza A nucleoprotein (NP), wild type (Influenza A virus A/WSN/33 (H1N1), UniProt P15682 1-498)
Assay: EMSA

UUUGUUACACACACACACGCUGUG (ssRNA) [24-nt RNA oligomer]
binding result: binds
